The target of data set [1] is T1, RAGE from bovine lung (native, purified/immunoprecipitated) (bovine, UniProt Q28173 23-416, carries PNGaseF-sensitive carboxylated N-linked oligosaccharides).
T1 construct: Released from mAbGB3.1 beads after immunoprecipitation of bovine lung homogenate; also called bovine lung RAGE; bovine RAGE
T1 sequence (looked up): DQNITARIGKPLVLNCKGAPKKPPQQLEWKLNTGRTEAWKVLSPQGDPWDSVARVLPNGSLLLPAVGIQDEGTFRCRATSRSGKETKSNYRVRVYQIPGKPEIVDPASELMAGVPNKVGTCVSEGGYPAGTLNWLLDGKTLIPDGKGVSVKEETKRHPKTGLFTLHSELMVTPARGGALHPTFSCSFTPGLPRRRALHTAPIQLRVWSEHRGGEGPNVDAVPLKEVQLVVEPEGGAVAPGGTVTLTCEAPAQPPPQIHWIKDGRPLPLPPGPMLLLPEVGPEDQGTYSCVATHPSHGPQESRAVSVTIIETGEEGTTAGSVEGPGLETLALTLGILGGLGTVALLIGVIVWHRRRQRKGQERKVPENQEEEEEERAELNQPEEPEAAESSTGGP
Briefly: saturation binding of 125I amphoterin to RAGE immobilized on microtiter wells, non-linear regression. On the procedure: (§1) Amphoterin was radioiodinated using Na ¹²⁵I and Iodo-Beads Iodinating Reagent (Pierce) to a specific activity of 5×10³ cpm/ng protein. Saturation binding experiments were done by a slight modification of the method of Hori et al (Hori at al., J. Biol. Chem., 270:25752-61 [1995]). Briefly, purified RAGE was immobilized on microliter wells and the wells blocked with 3% BSA. Wells were incubated at 4° C. overnight with increasing concentrations of ¹²⁵I amphoterin in HBSS containing 0.1% BSA in the presence or absence of desialylated carboxylate-enriched (COO⁻) or CONHMe bovine lung glycopeptides, or 20 μg/ml mAbGB3.1 or an unrelated anti-carbohydrate monoclonal antibody, or 100 fold excess of unlabeled amphoterin. Binding was also tested on RAGE deglycosylated by PNGase F under non-denaturing conditions. Wells were washed, bound amphoterin was eluted with 2 M NaCl, and radioactivity was measured using a gamma counter. Non-linear regression analysis was done using the GraphPad Prism program.
(§2) Specific binding is defined as the total binding minus non-specific binding measured in presence of 100-fold excess of unlabeled amphoterin. The […] binding was 3-4% of total binding. Then, the possibility that amphoterin binding is dependent upon the N-glycans on RAGE was examined.

Data set [2] deals with T1, RAGE from bovine lung (native, …). In words: saturation binding of 125I amphoterin to immobilized RAGE in presence of soluble COO- glycopeptides. On the procedure: as §1, §2
For data set [3], the target named is T2, RAGE deglycosylated by PNGase F (bovine, UniProt Q28173 23-416, N-linked oligosaccharides removed by PNGase F (mass decreased by about 4500 daltons)).
T2 construct: also called deglycosylated RAGE; PNGase F digested RAGE
T2 sequence (looked up): T1 sequence (looked up)
In words: saturation binding of 125I amphoterin to immobilized RAGE deglycosylated by PNGase F. The procedure:
as §1
The binding of a single concentration of labeled ligand was also tested in presence of various concentrations of COO⁻ or neutral glycopeptides. […] Binding was also found to be reduced in presence of mAbGB3.1, while a non-relevant antibody is ineffective (FIG. 24, Panel C).

Data set [4] deals with the molecule itself. Briefly: BS3 chemical cross-linking of neutrophil extracts, immunoblot. On the procedure: In these experiments, 96-well plates were coated with 250 ng of BSA coupled […] asialo-COO⁻ lung glycopeptides for 4 h at 37° C. and blocked with 3% BSA in PBS overnight. Human neutrophil extracts were sequentially incubated in each of four wells for 30 min/well at 37° C. in leukocyte activation buffer (described above), in presence or absence of 200 μM […] asialo-COO⁻ glycopeptides or asialo-CONHMe-glycopeptides. After incubation, the supernatants from the incubation wells were collected and protein depletion was analyzed by immunoblotting using the respective antibodies. For detection of S100A8/A9 complexes, the proteins in the supernatants were stabilized by chemical cross-linking using bis-sulfosuccinimidyl suberate (BS³) as known in the art (See, Staros, Biochem., 21:3590 [1982]). Briefly, the cross linker was added from a fresh 2 mM stock solution to neutrophil lysates obtained as described above, to a final concentration of 200 μM, and the mixture was incubated at room temperature for 30 min. Reactions were quenched by the addition of 1 M Tris to a final concentration of 10 mM and samples were stored at −80° C., until they were assayed. Cross-linked samples were incubated with 2-mercaptoethanol prior to separation on SDS-PAGE. Since crude lysates were used in the cross-linking, it is conceivable that non-specific cross-linking could occur. […]

The target in data set [5] is T3, human S100A9 (human, UniProt P06702 2-114, limits assumed).
T3 construct: also called MRP14; MRP9
T3 sequence (looked up): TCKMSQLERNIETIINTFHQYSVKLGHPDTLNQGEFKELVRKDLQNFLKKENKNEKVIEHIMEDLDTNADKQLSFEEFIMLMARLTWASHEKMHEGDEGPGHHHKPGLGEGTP
Briefly: co-purification from human neutrophil cytosol. From the text:
Chem., 266:7706 [1991]). […] The proteins remained as heteromeric complexes through purification, were even retained on YM10 and YM30 ultrafiltration membranes, and could not be separated into individual proteins without denaturation. The molecular masses of the purified proteins as determined by SDS gels was 11 kDa and 14 kDa for S100A8 and S100A9 respectively (data not shown). […] Binding to BSA coupled asialo-COO⁻ bovine lung glycopeptides immobilized on microtiter plates was inhibited in presence of 0.3 M asialo-COO⁻ glycopeptides, but much less effectively by the asialo-CONHMe-glycopeptides. In FIG. 19, each point is the mean of two determinations.
All steps were carried out at 4° C., unless otherwise indicated. […] Briefly, 100 ml peripheral blood was obtained from healthy volunteers and neutrophils obtained by Ficoll-Hypaque centrifugation as indicated above. The cells were lysed in PBS containing 1 mM DTT, 1% NP40 and protease inhibitors, and subjected to ultracentrifugation at 160,000×g for 30 min. The protein in the supernatant was adjusted to 2 mg/ml with the above buffer, and the solution stirred on ice. Solid ammonium sulfate was slowly added to a final concentration of 75% (w/v) and stirred for 1 h. […] S100A8/A9 proteins eluted at 35-50% acetonitrile, and were >90% pure as determined by SDS gels.

Consider two molecules from US20100249383A1, “Novel Ligand Involved In The Transmigration Of Leukocytes Across the Endothelium and Uses Therefor” (The Regents of The University of California and The Burnham …, priority 2001, published 2010).

B1: amphoterin (baculovirus expressed rat amphoterin) (ligand, UniProt P63159 2-215, looked up)
chain: GKGDPKKPRGKMSSYAFFVQTCREEHKKKHPDASVNFSEFSKKCSERWKTMSAKEKGKFEDMAKADKARYEREMKTYIPPKGETKKKFKDPNAPKRPPSAFFLFCSEYRPKIKGEHPGLSIGDVAKKLGEMWNNTAADDKQPYEKKAAKLKEKYEKDIAAYRAKGKPDAAKKGVVKAEKSKKKKEEEDDEEDEEDEEEEEEEEDEDEEEDDDDE
modifications: radioiodinated (125I) in the binding assays
notes: the only purified amphoterin in the materials is the baculovirus expressed rat protein; also called recombinant amphoterin
B1: the Kd in data set [1] was about 10.7 nM; in data set [2], about 12.6 nM; in data set [3], about 18.2 nM.

B2: human S100A8 (other, UniProt P05109 1-93, looked up)
chain: MLTELEKALNSIIDVYHKYSLIKGNFHAVYRDDLKKLLETECPQYIRKKGADVWFKELDINTDGAVNFQEFLILVIKMGVAAHKKSHEESHKE
notes: also called MRP8; CP-10
Regarding B2, the binding result in data set [4] and in data set [5] was “binds” in each case.
